Reference: patent publication US7268216B2, “Chimeric avidin mutants” (Licentia Oy, priority 2004, dated 2007)
Like-named read-outs stand apart in the source and are kept apart here.

What was measured:
[1] = tested on: Proteinase K; conditions: even without bound biotin; refs (8,32); cited from earlier work
[2] = Microplate assay: remaining biotin-binding activity after heat treatment; type: physicochemical; conditions: 50 mM phosphate buffer, 100 mM NaCl, pH 7.0
Procedure: The inactivation of the proteins during heat-treatment was analysed by using a microplate assay (23). The proteins were heated to 99.9° C. in 50 mM phosphate buffer containing 100 mM NaCl (pH 7.0) for 32 minutes. The remaining activity was probed by measuring the ability of the proteins to bind biotinylated alkaline phosphatase by coating the microplate wells with samples of the heated proteins.

[3] = tested on: Proteinase K; assay: Proteinase K assay (proteolytic resistance, SDS-PAGE); type: physicochemical; conditions: for digested after treatment with Proteinase K: 16 hours, 37° C., Proteinase K 1/25 w/w, without biotin; for cleavage by Proteinase K: proteins saturated with biotin before treatment
Procedure: The proteolytic resistance of the proteins were studied using proteolysis by Proteinase K, as previously described (7). Protein sample (4 μg) was incubated in the presence of Proteinase K ( 1/25 w/w) at 37° C. for a predetermined time period, denatured by boiling in sample buffer (SDS, 2-mercaptoethanol) and subjected to SDS-PAGE followed by coomassie staining.

[4] = IAsys optical biosensor (SPR), 2-iminobiotin binding; conditions: 2-iminobiotin surface, 20° C., 50 mM borate buffer pH 9.5, 1 M NaCl
Procedure: The biotin-binding characteristics of the different avidins were studied by a surface plasmon resonance (SPR) optical biosensor (IAsys). The binding affinities to the 2-iminobiotin surface in 50 mM borate buffer (pH 9.5, 1 M NaCl) were measured as previously reported (7).

[5] = Fluorescent biotin dissociation assay; type: binding
Procedure: The binding of labelled biotin to avidins was analysed by a method based on the quenching of a biotin-coupled fluorescent probe ArcDia BF560 (ArcDia Ltd., Turku, Finland) due to binding to avidin, as previously described (18). The measurements were performed using a PerkinElmer LS55 luminometer with thermostated cuvette (25 or 50° C.). The signal measured for 3600 sec (25° C.) or 2400 sec (50° C.) was used to determine the dissociation rate constant.

[6] = cited from earlier work
[7] = Differential scanning calorimetry (DSC), heat denaturation; type: physicochemical
Procedure: The transition midpoint of the heat denaturation (Tm) of the avidin proteins was studied using a Calorimetry Sciences Corporation (CSC) Nano II differential scanning calorimeter, as in previous reports (22,23). Proteins (˜0.5 mg/ml) were analyzed both in the absence and presence of biotin (3:1 molar ratio; biotin:avidin monomer).

[8] = Radiobiotin dissociation assay; type: binding; conditions: [3H]biotin, various temperatures
Procedure: The dissociation rate of [3H]biotin from avidin, AVR4/5 and the avidin mutants was determined as described in (20) at various temperatures. The activation thermodynamic parameters for AVR4/5(C122S) and avidin were determined by analysis of the dependence of the dissociation rate upon temperature using the global fit of all data, as described in (21).

Substance	resistance to cleavage by Proteinase K [1]	Activity: biotin-binding activity after 32 min treatment at 99.9° C. [2] [%]	digested after treatment with Proteinase K [3] [%]	cleavage by Proteinase K [3]	kass, association rate constant [4]	Release 1 h (total release of the probe) ([5]; 25° C.) [%]	kdiss, dissociation rate constant ([5]; 25° C.)	Release 1 h (total release of the probe) ([5]; 50° C.) [%]	kdiss, dissociation rate constant ([5]; 50° C.)	ΔH (unfolding enthalpy) ([6]; DSC, sample without biotin, results from ref (8)) [kcal/mol]	Tm(+biotin) ([6]; DSC, with biotin, results from ref (8)) [°C]	Tm(−biotin) ([6]; DSC, without biotin, results from ref (8)) [°C]	ΔTm, change in Tm upon addition of a three-fold molar excess of biotin ([6]; DSC, results from ref (8)) [°C]	Tm, transition midpoint of heat denaturation ([6]; from ref (8)) [°C]	Tm, transition midpoint of heat denaturation [7] [°C]	ΔTm, change in Tm upon addition of a three-fold molar excess of biotin ([7]; DSC) [°C]	Tm(+biotin) ([7]; DSC, biotin 3:1 molar ratio biotin:avidin monomer) [°C]	ΔH (unfolding enthalpy) ([7]; DSC, sample without biotin) [kcal/mol]	Tm(−biotin) ([7]; DSC, without biotin, average ± S.D) [°C]	biotin binding / dissociation rate in radiobiotin dissociation assay [8]
streptavidin: Bacterial analogue of avidin from Streptomyces avidinii	resistant to cleavage																			
AVD: Chicken avidin obtained from Belovo S. A.; homotetrameric egg-white glycoprotein (SEQ ID NO:1) [reference compound]		4	50	no cleavage was observed	(2.6 ± 0.2) × 10^4 M^−1s^−1	10.7	2.04 10^−5 s^−1	71.5	2.74 10^−4 s^−1	78.6 ± 1.2	117.0 ± 0.7	83.5 ± 0.1	33.5	83.5						
AVD(I117Y): Avidin with mutation I117Y in 1-3 subunit interface, produced in baculovirus-infected insect cells		47	50	no cleavage was observed	(2.3 ± 0.3) × 10^4 M^−1s^−1	3.0	0.81 10^−5 s^−1	56.5	1.61 10^−4 s^−1						97.5	26.2	123.7 ± 0.1	128 ± 1.4	97.5 ± 0.4	very tight, avidin-like biotin binding
